This note sets out measurements from US20020150567A1 (University of California, published 2002).

This test addresses T1, GST (UniProt P08515 1-218 = GST).
T1 construct: Control protein; also called GST itself
The test is described as follows: Far-Western blot with radioactively labeled probe.

T1 sequence (P08515 whole entry): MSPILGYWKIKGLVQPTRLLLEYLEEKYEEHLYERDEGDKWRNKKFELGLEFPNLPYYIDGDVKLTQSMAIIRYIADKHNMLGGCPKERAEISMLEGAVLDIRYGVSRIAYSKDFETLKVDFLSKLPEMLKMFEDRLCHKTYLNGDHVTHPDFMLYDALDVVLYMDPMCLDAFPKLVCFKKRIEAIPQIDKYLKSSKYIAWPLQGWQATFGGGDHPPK
Excerpt: A bacterially expressed GST-GRB2 fusion protein containing a 5 amino acid RRASV heart muscle kinase site was purified and radioactively labeled with [³²P]ATP.

B1: p85 SH3 domain (amino acids 1-81) (other, UniProt P26450 1-81, looked up)
chain: MSAEGYQYRALYDYKKEREEDIDLHLGDILTVNKGSLVALGFSDGQEARPEDIGWLNGYNETTGERGDFPGTYVEYIGRKR
modifications: radioactively labeled
notes: range 1-81
Regarding B1, the binding result is reported as “no binding”.
